Laboratory results published in patent US20250346673A1 (DUALITY BIOLOGICS SUZHOU, published 2025).
Substitutions are numbered along the chain they refer to.

T1: human FcγRIIA (H167) (human, UniProt P12318 36-218, limits assumed, biotinylated (site not stated))
T1 construct: also called Fey RIIA (H167)
T1 sequence (looked up): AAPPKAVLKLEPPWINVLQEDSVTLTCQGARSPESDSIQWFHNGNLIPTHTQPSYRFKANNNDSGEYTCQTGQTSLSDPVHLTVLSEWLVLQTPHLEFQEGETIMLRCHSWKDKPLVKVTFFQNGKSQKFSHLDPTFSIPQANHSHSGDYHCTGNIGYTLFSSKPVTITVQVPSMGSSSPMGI

T2: human FcγRIIA (R167) (human, UniProt P12318 36-218, limits assumed, biotinylated (site not stated))
T2 construct: also called Fe γ RIIA(R167); Fcγ RIJA (R167)
T2 sequence (looked up): T1 sequence (looked up) with H132R

T3: human BDCA2 (human, UniProt Q8WTT0 1-213)
T3 construct: whole, on cells; also called hBDCA2; Blood dendritic cell antigen 2
T3 sequence (looked up): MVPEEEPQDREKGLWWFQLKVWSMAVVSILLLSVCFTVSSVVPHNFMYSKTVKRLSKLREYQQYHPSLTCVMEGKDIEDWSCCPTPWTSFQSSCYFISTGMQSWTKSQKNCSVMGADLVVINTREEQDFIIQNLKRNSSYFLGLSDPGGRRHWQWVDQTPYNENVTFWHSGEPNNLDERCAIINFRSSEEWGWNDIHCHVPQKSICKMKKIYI

T4: cynomolgus BDCA2 (cynomolgus monkey, UniProt A0A2K5UWP4 1-212)
T4 construct: whole, on cells; also called Cyno BDCA2; cynoBDCA2
T4 sequence: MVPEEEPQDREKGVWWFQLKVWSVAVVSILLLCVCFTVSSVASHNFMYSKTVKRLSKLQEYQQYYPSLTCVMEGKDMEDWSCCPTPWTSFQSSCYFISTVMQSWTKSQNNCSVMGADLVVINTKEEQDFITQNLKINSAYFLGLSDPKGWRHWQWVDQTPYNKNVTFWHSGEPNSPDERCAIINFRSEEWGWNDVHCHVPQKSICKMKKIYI

B1: Hu033-20-T1 (antibody, human IgG1, kappa)
heavy: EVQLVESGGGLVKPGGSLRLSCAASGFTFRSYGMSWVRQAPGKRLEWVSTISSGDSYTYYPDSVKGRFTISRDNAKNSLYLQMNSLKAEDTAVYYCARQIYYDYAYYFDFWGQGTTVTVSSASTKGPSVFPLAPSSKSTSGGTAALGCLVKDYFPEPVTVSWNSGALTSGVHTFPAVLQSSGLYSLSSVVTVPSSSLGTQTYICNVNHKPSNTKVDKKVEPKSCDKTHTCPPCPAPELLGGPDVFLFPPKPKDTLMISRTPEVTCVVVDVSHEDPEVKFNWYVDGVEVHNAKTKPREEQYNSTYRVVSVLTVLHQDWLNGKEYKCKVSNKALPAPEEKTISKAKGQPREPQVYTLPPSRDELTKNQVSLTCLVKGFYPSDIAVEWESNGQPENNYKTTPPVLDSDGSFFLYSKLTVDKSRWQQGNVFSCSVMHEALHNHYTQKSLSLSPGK
light: DIVMTQSPDSLAVSLGERATINCRASESVSFRTSHLMHWYQQKPGQPPKLLIYGASNLESGVPDRFSGSGSGTDFTLTISSLQAEDVAVYYCQQSIEDPPTFGGGTKVEIKRTVAAPSVFIFPPSDEQLKSGTASVVCLLNNFYPREAKVQWKVDNALQSGNSQESVTEQDSKDSTYSLSSTLTLSKADYEKHKVYACEVTHQGLSSPVTKSFNRGEC
notes: Fc-mutated Hu033-20 (IgG1)
B2: Hu033-20-T3 (antibody, human IgG1, kappa)
heavy: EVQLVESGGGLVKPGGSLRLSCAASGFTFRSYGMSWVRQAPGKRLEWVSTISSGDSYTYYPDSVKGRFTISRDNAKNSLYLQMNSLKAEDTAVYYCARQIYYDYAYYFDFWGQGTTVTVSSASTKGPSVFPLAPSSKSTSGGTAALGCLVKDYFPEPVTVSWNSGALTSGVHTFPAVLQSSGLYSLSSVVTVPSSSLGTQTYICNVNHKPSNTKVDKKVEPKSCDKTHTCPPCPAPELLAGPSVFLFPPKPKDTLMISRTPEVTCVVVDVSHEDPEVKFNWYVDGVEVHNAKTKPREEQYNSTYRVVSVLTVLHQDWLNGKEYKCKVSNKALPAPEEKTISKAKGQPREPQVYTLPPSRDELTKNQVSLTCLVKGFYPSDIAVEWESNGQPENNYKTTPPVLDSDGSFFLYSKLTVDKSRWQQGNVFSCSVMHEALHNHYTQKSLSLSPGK
light: B1 light
notes: Fc-mutated Hu033-20 (IgG1)
B3: Hu033-20-T2 (antibody, human IgG1, kappa)
heavy: EVQLVESGGGLVKPGGSLRLSCAASGFTFRSYGMSWVRQAPGKRLEWVSTISSGDSYTYYPDSVKGRFTISRDNAKNSLYLQMNSLKAEDTAVYYCARQIYYDYAYYFDFWGQGTTVTVSSASTKGPSVFPLAPSSKSTSGGTAALGCLVKDYFPEPVTVSWNSGALTSGVHTFPAVLQSSGLYSLSSVVTVPSSSLGTQTYICNVNHKPSNTKVDKKVEPKSCDKTHTCPPCPAPELLAGPDVFLFPPKPKDTLMISRTPEVTCVVVDVSHEDPEVKFNWYVDGVEVHNAKTKPREEQYNSTYRVVSVLTVLHQDWLNGKEYKCKVSNKALPAPEEKTISKAKGQPREPQVYTLPPSRDELTKNQVSLTCLVKGFYPSDIAVEWESNGQPENNYKTTPPVLDSDGSFFLYSKLTVDKSRWQQGNVFSCSVMHEALHNHYTQKSLSLSPGK
light: B1 light
notes: Fc-mutated Hu033-20 (IgG1)
B4: mAb034 (antibody, V domains shown)
VH: DVQLQESGPGLVKPSQSLSLTCSVTGYSITSGYYWNWIRQFPGNKLECMGYITYDGSNNYNPSLKDRISITRDTSKNQFFLKLNSVTTEDTATYYCARGGDYDDGGFAYWGHGTLVTVSA
VL: DIQMTQSPVSLSASVGETVTITCRASGNIHNYLAWYQQKQGKSPQLLVYNAKSLVDGVPSRFSGSGSGTQYSLKINSLQPEDFGSYYCQHFWIIPYTFGGGTKLEIK
notes: Mouse hybridoma antibody
B5: mAb033 (antibody, V domains shown)
VH: EVQMVESGGDLVKPGDSLKLSCAASGFTFRSYGMSWVRQTPDKRLEWVATISSGDSYTYYPDSVKGRFTISRDNAKNTLYLQMSSLKSEDTALYYCARQIYYDYAYYFDFWGQGTTLTVSS
VL: DIVLTQSPASLAVSLGQRATISCRASESVSFRTSHLMHWYQQKPGQPPKLLIYGASNLESGVPARFSGSGSETDFTLNIHPVEEEDAAAYFCQQSIEDPPTFGGGTKLEIK
notes: Mouse hybridoma antibody
B6: mab001c (antibody, V domains shown)
VH: QIQLVQSGPELKKPGETVKISCKASGYTFTDFSMHWVKQAPGKGLKWMGWINTETGEPTYADDFKGRFAFSLETSASTAFLQINNLKNDDTTTYFCSRGGDGHPYWYFAVWGAGTTVTVSS
VL: DIVLTQSPASLAVSLGQRATISCRASQSVSTSSYSYMHWYQQKPGQPPKLLIKYASILESGVPARFSGSGSGTDFTLNIHPVEEEDTATYYCQHSWEIPFTFGSGTKLEIK

What was measured:
human FcγRIIA (H167) [1] = molecular target: T1, human FcγRIIA (H167); assay: SPR, FcγRIIA (H167); against the wild-type Fc antibody Hu033-20
Protocol: (§1) Antibody kinetics or affinity parameters were measured using BIAcore 8K and freshly fixed biotinylated human Fe γ RIIA(R167)/Fc γ RIIA (H167) SA chips. The experiment was run at 25° C. with a running buffer of 1×HBS-EP+(10 mM HEPES pH 7.4, 150 mM NaCl, 3 mM EDTA, 0.05% Surfactant P20). […] The binding and dissociation times of the antibody were 60 and 90 seconds, respectively. Two zero concentration samples are used to remove background signals. The sample was injected in a multi cycle manner, the analyte can be fully dissociated from the chip surface at the end of each cycle, and no regeneration step was applied. Data analysis was perform using Biacore Insight Evaluation Software (Version 2.0.15.12933). After deducting the reference channel (flow cell 1) and two zero concentration signals, affinity analysis was performed using a 1:1 binding model or steady-state model for curve fitting and calculation of kinetic parameters.

human FcγRIIA (R167) [2] = molecular target: T2, human FcγRIIA (R167); assay: SPR (BIAcore 8K), biotinylated FcγRIIA (R167) on SA chip, antibody as analyte, 1:1 binding
Protocol: as §1

human FcγRIIA (R167) [3] = molecular target: T2, human FcγRIIA (R167); assay: SPR, FcγRIIA (R167); against the wild-type Fc antibody Hu033-20
Protocol: as §1

human FcγRIIA (H167) [4] = molecular target: T1, human FcγRIIA (H167); assay: SPR (BIAcore 8K), biotinylated FcγRIIA (H167) on SA chip, antibody as analyte, 1:1 binding
Protocol: as §1

human BDCA2 [5] = molecular target: T3, human BDCA2; assay: FACS on CHOK1-hBDCA2 cells; EC50 table under the plot, unit from the x axis (nM) [continued) e.]
Protocol: (§2) The cells were recovered and resuspended to 2×10⁶/mL with FACS buffer (PBS+2% FBS). The cells were added to 3799 cell plates (Corning) at 100 μL/well, and the supernatant was discarded after centrifugation at 300 g. The antibodies were serially diluted with FACS buffer (Id.), the diluted antibodies were added to centrifuged cells and the cells were resuspended. The cells were incubated at 4° C. for 1 h. The incubated cells were then centrifuged at […] for 5 min and washed twice with FACS buffer. 100 μL Donkey anti-Mouse IgG (H+L) Highly Cross-Adsorbed Secondary Antibody-Alexa Fluor 488 (Invitrogen, A21202; 1:1000) secondary antibody was added to the cells, which were washed twice with FACS buffer after incubation at 4° C. for 1 h, resuspended with PBS, analyzed with FACS (BD FACS CantoTM II) instrument. The curve was fitted with GraphPad Prism6, and EC₅₀ values were calculated.

[6] = molecular target: T5, Human BDCA2 Fc recombinant protein (human); assay: ELISA, coated humanBDCA2 Fc
T5 construct: Human IgG1 Fc N-terminal of the BDCA2 extracellular domain (Asn45-Ile213), fused by a linker; also called BDCA2-Fc protein
Protocol: HumanBDCA2 Fc protein or cynoBDCA2 His protein was diluted with PBS to 1 μg/mL and added to ELISA microplates at 100 μL/well and incubated at 4° C. overnight. The plates were blocked with ELISA blocking solution (PBS phosphate buffer with 1% BSA, pH 7.4, the percentages representing mass percentages) at 37° C. for 2 hours. Sequential 10-fold serial dilutions of antibodies were added at 8 concentrations (0.0001 nM-100 nM, including 0 point control) in total at 100 μL/well. The plates were incubated at 37° C. for 1 hour, then washed 3 times and after anti-mouse IgG (Fab specific)-HRP (Sigma, A3682; 1: 5000 dilution) secondary antibodies were added at 100 μL/well, were incubated at 37° C. for 1 h. The plates were washed 3 times, TMB development fluid (EL0009, Huzhou Ying Chuang Biotechnology) was added at 100 μL/well and 50 μL 1N hydrochloric acid was added after incubation at 37° C. for 10 min to stop the development reaction. OD450 nm values were read with ELISA plate reader and the curve was fitted with GraphPad Prism6, and EC₅₀ values were calculated.

cynomolgus BDCA2 = molecular target: T4, cynomolgus BDCA2; assay: FACS on 293F-cynoBDCA2 cells; EC50 table under the plot, unit from the x axis (nM) [continued) e.]
Protocol: as §2

human BDCA2 [7] = molecular target: T3, human BDCA2; assay: cell-based or functional assay
human BDCA2 [8] = molecular target: T3, human BDCA2; assay: FACS on CHOK1-hBDCA2 cells; EC50 table under the plot, unit from the x axis (nM)
Protocol: The cells were recovered and resuspended to 2×10⁶/mL with FACS buffer (PBS+2% FBS). The cells were added to 3799 cell plates (Corning) at 100 μL/well, and the supernatant was discarded after centrifugation at 300 g. The antibodies were serially diluted with FACS buffer (Id.), the diluted antibodies were added to centrifuged cells and the cells were resuspended. The cells were incubated at 4° C. for 1 h. The incubated cells were centrifuged at 300 g for 5 min and washed twice with FACS buffer. 100 μL […] anti-Human IgG (H+L) Cross-Adsorbed Secondary Antibody-Alexa Fluor 488 (Sigma, A11013; 1:1000) secondary antibody was added, washed twice with FACS buffer after incubation at 4° C. for 1 h, resuspended with PBS, analyzed with FACS (BD FACS CantoTM II) instrument and curve fitted with GraphPad Prism6, and EC₅₀ values were calculated.

Binder | Multiple of affinity (human FcγRIIA (H167) [1]) [fold] | Kd (human FcγRIIA (R167) [2]) [nM] | koff (human FcγRIIA (R167) [2]) [s⁻¹] | kon (human FcγRIIA (R167) [2]) [M⁻¹ s⁻¹] | Multiple of affinity (human FcγRIIA (R167) [3]) [fold] | Kd (human FcγRIIA (H167) [4]) [nM] | koff (human FcγRIIA (H167) [4]) [s⁻¹] | kon (human FcγRIIA (H167) [4]) [M⁻¹ s⁻¹] | EC50 (human BDCA2 [5]) [nM] | EC50 [6] [nM] | EC50 (cynomolgus BDCA2) [nM] | IC50 for inhibiting cytokine IFNα release, CpG-A stimulated human PBMC (human BDCA2 [7]) [nM] | EC50 (human BDCA2 [8]) [nM]
B1 | 2.5 | 312 | 0.249 | 798000 | 5.1 | 489 | 0.242 | 494000 | – | – | – | – | –
B2 | 8.7 | 279 | 0.191 | 683000 | 6.3 | 154 | 0.087 | 563000 | – | – | – | – | –
B3 | 12.1 | 41.1 | 0.0821 | 2e+06 | 17.7 | 95.5 | 0.0577 | 604000 | – | – | – | – | –
B4 | – | – | – | – | – | – | – | – | 0.705 | < 0.3 | 1.96 | – | –
B5 | – | – | – | – | – | – | – | – | 0.388 | – | 1.18 | 0.00408 | –
B6 | – | – | – | – | – | – | – | – | – | – | – | – | 1.9
